# US20170024512A1
# Target: RecBCD (endogenous exonuclease of the E. coli cell-free extract) (E. coli) (UniProt P08394)
# Assay: cell-based or functional assay
# Sequence of UniProt P08394 (P08394 2-1180 limits assumed, chain 1 of 3): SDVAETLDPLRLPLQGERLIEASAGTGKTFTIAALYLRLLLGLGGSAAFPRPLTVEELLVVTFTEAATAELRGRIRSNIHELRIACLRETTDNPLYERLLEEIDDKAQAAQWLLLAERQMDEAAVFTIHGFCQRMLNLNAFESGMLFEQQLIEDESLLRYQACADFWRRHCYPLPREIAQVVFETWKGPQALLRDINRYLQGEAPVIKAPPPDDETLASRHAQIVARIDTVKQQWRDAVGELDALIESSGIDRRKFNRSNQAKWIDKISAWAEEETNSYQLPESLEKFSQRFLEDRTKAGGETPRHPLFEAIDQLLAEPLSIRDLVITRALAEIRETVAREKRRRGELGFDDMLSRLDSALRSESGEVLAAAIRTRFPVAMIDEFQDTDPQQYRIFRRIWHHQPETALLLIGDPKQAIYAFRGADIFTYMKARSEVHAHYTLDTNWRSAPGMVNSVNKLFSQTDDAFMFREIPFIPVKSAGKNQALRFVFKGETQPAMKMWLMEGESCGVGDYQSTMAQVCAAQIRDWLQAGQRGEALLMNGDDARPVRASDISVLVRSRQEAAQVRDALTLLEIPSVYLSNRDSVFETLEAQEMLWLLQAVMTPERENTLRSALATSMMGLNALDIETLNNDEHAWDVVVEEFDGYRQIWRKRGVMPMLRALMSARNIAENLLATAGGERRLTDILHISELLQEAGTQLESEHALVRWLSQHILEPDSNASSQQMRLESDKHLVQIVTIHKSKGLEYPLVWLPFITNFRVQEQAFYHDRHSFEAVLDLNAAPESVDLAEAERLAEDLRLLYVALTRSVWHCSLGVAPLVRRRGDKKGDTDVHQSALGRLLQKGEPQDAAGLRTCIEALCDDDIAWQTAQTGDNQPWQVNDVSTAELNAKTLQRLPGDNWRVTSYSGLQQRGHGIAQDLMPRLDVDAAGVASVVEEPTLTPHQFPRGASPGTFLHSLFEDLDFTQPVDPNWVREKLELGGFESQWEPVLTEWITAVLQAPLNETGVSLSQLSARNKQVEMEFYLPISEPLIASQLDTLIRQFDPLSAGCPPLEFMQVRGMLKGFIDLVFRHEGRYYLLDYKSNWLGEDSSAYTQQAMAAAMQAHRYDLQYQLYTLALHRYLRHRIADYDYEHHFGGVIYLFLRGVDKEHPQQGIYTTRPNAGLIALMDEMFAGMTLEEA
# Sequence of UniProt P08394 (P07648 whole entry, chain 2 of 3, further chain): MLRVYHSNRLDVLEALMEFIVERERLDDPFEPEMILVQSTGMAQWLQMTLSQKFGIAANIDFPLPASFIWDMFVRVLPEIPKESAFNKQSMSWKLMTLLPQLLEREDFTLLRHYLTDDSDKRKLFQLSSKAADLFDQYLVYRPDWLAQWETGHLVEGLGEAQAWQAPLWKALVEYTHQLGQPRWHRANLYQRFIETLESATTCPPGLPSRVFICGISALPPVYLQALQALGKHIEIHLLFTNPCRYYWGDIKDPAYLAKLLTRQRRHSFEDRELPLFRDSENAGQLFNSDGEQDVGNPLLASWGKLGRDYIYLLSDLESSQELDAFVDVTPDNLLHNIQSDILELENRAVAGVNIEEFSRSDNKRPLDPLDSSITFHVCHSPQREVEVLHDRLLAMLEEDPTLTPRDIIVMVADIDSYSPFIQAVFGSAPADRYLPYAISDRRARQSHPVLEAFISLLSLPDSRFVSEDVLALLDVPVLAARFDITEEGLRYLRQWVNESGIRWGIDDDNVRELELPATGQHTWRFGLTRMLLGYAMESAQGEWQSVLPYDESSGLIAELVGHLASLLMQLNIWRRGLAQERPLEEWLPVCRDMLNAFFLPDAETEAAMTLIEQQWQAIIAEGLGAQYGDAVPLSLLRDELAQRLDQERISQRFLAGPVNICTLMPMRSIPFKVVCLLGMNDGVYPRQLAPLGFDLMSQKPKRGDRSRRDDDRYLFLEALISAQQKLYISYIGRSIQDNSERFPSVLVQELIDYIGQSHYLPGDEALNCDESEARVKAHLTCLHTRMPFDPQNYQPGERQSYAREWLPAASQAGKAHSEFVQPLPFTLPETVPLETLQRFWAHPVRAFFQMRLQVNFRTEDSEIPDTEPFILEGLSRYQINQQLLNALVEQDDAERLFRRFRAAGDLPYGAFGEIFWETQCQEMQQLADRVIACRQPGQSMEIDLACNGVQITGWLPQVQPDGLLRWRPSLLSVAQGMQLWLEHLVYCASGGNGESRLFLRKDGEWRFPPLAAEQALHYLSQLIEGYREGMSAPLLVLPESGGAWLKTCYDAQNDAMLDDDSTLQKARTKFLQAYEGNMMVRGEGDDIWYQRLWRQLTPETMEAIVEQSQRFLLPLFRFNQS
# Sequence of UniProt P08394 (P04993 whole entry, chain 3 of 3, further chain): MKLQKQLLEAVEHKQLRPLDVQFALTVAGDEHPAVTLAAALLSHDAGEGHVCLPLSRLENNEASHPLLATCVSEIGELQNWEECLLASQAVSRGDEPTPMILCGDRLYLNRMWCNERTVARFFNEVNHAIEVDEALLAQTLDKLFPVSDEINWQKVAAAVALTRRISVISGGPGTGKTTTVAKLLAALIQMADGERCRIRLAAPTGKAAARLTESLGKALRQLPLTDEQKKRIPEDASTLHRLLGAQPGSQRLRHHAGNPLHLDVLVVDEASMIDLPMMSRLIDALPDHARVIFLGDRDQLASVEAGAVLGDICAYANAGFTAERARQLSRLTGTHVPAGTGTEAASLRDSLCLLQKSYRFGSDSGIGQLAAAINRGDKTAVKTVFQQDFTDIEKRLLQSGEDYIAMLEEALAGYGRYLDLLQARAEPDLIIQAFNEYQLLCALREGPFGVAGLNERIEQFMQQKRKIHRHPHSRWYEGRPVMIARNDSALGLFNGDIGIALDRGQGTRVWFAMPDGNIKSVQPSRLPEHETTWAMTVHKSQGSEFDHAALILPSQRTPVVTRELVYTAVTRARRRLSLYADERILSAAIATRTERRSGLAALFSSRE
substance,measurement,value
"gamS protein (GamS, a truncated form of lambda gam) (from UniProt P03702 1-98)",protection of linear DNA from degradation in TX-TL (endpoint deGFP expression from 2 nM linear DNA); gamS working concentration,3.5 µM
